Key:
Experiment in all cases: cell-based or functional assay
[1] = molecular target: Env of the HIV-1 pseudotyped virus Q23Env17 (clade A, Tier 1) (HIV-1 (clade A, Q23Env17))
[2] = molecular target: Env of the HIV-1 pseudotyped virus SF162S (clade B, Tier 1) (HIV-1 (clade B, SF162S))
[3] = molecular target: Env of the HIV-1 pseudotyped virus Bal26 (clade B, Tier 1) (HIV-1 (clade B, Bal26))

B1: HIV-1 Env-Fab (Fab generated from the VRC01 antibody by pHIV-1 Env Fab) (Fab, V domains shown)
VH: QVQLVQSGGQMKKPGESMRISCRASGYEFIDCTLNWIRLAPGKRPEWMGWLKPRGGAVNYARPLQGRVTMTRDVYSDTAFLELRSLTVDDTAVYFCTRGKNCDYNWDFEHWGRGTPVIVSS
VL: QIVLTQSPGTLSLSPGETAIISCRTSQYGSLAWYQQRPGQAPRLVIYSGSTRAAGIPDRFSGSRWGPDYNLTISNLESGDFGVYYCQQYEFFGQGTKVQVDI
What does the source list for B1?
plateau percent neutralization (TZM-Bl luciferase assay, serum 1:50) [1]: ~60%; plateau percent neutralization (TZM-Bl luciferase assay, serum 1:50) [2]: ~70%; plateau percent neutralization (TZM-Bl luciferase assay, serum 1:50) [3]: ~62%
